# How the values were obtained:
# [1] = target: mouse ICAM-1 (endogenous) (mouse (endogenous in bEnd.3, NOD LGACs)) (UniProt P13597)
# [2] = target: mouse ICAM-1 (endogenous) (mouse (endogenous in bEnd.3, NOD LGACs)) (UniProt P13597); remark: listed apart in the source
# [3] = target: mouse ICAM-1 (endogenous) (mouse (endogenous in bEnd.3, NOD LGACs), UniProt P13597 28-537); assay: cell-based or functional assay
# [4] = target: the molecule itself; assay: dynamic light scattering; 25 µM in PBS, pH 7.4, heated from 10 °C to 37 °C; assembly of monomers into nanoparticles above Tt1
# Chain of mouse ICAM-1 (endogenous) (mouse (endogenous in bEnd.3, NOD LGACs)) (P13597 28-537): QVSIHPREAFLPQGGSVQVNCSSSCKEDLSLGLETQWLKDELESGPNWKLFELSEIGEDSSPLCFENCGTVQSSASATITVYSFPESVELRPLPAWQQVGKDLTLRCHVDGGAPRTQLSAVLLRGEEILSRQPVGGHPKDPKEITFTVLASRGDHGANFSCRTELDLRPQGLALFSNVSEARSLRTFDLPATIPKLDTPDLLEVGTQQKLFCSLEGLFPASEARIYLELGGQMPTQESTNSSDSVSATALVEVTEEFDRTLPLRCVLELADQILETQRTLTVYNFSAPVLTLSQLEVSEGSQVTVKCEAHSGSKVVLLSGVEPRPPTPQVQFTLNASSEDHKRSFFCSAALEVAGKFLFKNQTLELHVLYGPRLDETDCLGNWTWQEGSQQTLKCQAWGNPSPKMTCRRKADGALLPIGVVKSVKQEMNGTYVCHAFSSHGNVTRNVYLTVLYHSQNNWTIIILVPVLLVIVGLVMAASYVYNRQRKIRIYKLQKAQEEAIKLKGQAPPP
# Chain of mouse ICAM-1 (endogenous) (P13597 28-537): as above
Molecule,"adhesion of fluorescently labelled splenocytes to TNF-α-induced bEnd.3 cells in the presence of 100 µM SI (negative control), percent of the control without ELP, plate reader [1] [%]","splenocyte binding to TNF-α-induced bEnd.3 cells in the presence of 100 µM SI (negative control), percent of the control without ELP, flow cytometry [1] [%]","proliferation of CFSE-labelled mouse CD4+ T-cells stimulated with MCC-loaded CH27 cells, in the presence of 100 µM SI (control), 5 days, percent of the untreated mixture [2] [%]","IC50 of inhibition of adhesion of PMA-activated, CFSE-labelled mouse splenocytes (LFA-1) to TNF-α-induced bEnd.3 cells (ICAM-1), flow cytometry, IBP-SI 10-150 µM, 45 min, 37 °C [3] [µM]","IC50 of inhibition of adhesion of PMA-activated, CFSE-labelled mouse splenocytes (LFA-1) to TNF-α-induced bEnd.3 cells (ICAM-1), fluorescence plate reader, IBP-SI 10-150 µM, 45 min, 37 °C [3] [µM]",binding result [4]
lymphocyte function-associated antigen-1 (LFA-1) (from UniProt P24063 24-1162; P11835 24-771) (receptor),76.2,86.9,91.2,,,
"IBP-SI (ICAM-1 binding peptide fused to the diblock elastin-like polypeptide S48I48) (designed binder, N-terminal leader; residue between IBP and the ELP; Unlabelled form; also called IBI-SI; source: E. coli BLR(DE3), purified by ELP-mediated phase separation) MGFEGFSFLAFEDFVSSIGVPGSGVPGSGVPGSGVPGSGVPGSGVPGSGVPGSGVPGSGVPGSGVPGSGVPGSGVPGSGVPGSGVPGSGVPGSGVPGSGVPGSGVPGSGVPGSGVPGSGVPGSGVPGSGVPGSGVPGSGVPGSGVPGSGVPGSGVPGSGVPGSGVPGSGVPGSGVPGSGVPGSGVPGSGVPGSGVPGSGVPGSGVPGSGVPGSGVPGSGVPGSGVPGSGVPGSGVPGSGVPGSGVPGSGVPGSGVPGSGVPGIGVPGIGVPGIGVPGIGVPGIGVPGIGVPGIGVPGIGVPGIGVPGIGVPGIGVPGIGVPGIGVPGIGVPGIGVPGIGVPGIGVPGIGVPGIGVPGIGVPGIGVPGIGVPGIGVPGIGVPGIGVPGIGVPGIGVPGIGVPGIGVPGIGVPGIGVPGIGVPGIGVPGIGVPGIGVPGIGVPGIGVPGIGVPGIGVPGIGVPGIGVPGIGVPGIGVPGIGVPGIGVPGIGVPGIGVPGIGY",,,,62.7,81.2,binds
"SI (diblock elastin-like polypeptide S48I48) (other, N-terminal leader; also called parent SI; source: E. coli BLR(DE3), purified by ELP-mediated phase separation) MGVPGSGVPGSGVPGSGVPGSGVPGSGVPGSGVPGSGVPGSGVPGSGVPGSGVPGSGVPGSGVPGSGVPGSGVPGSGVPGSGVPGSGVPGSGVPGSGVPGSGVPGSGVPGSGVPGSGVPGSGVPGSGVPGSGVPGSGVPGSGVPGSGVPGSGVPGSGVPGSGVPGSGVPGSGVPGSGVPGSGVPGSGVPGSGVPGSGVPGSGVPGSGVPGSGVPGSGVPGSGVPGSGVPGSGVPGSGVPGSGVPGIGVPGIGVPGIGVPGIGVPGIGVPGIGVPGIGVPGIGVPGIGVPGIGVPGIGVPGIGVPGIGVPGIGVPGIGVPGIGVPGIGVPGIGVPGIGVPGIGVPGIGVPGIGVPGIGVPGIGVPGIGVPGIGVPGIGVPGIGVPGIGVPGIGVPGIGVPGIGVPGIGVPGIGVPGIGVPGIGVPGIGVPGIGVPGIGVPGIGVPGIGVPGIGVPGIGVPGIGVPGIGVPGIGVPGIGVPGIGY",,,,,,binds

# From PMC7216292, “A Multivalent ICAM-1 Binding Nanoparticle which Inhibits ICAM-1 and LFA-1 Interaction Represents a New Tool for the Investigation of Autoimmune-Mediated Dry Eye” (International Journal of Molecular Sciences, 2020)
